Here are results for one substance from article PMC4602278.

The stoichiometry N is a count of units in the complex or per binding partner.

The target in the test is Litopenaeus vannamei IRF, endogenous in shrimp tissues (Litopenaeus vannamei (endogenous in intestines and hepatopancreas)). Briefly: native gel or EMSA; native-PAGE of shrimp tissue samples (intestines, hepatopancreas; hemocytes as negative control) with western-blot, beta-actin as control; also hepatopancreas at times after WSSV or poly (I:C) treatment. A general note: Mobility shift assays separate free from complexed probe on a gel.

On to “Litopenaeus vannamei IRF, endogenous in shrimp tissues (natural protein)”, for which the stoichiometry N stood at 2.
